# T1: mouse GPR12 (mouse, UniProt P35412 1-334)
# T1 sequence: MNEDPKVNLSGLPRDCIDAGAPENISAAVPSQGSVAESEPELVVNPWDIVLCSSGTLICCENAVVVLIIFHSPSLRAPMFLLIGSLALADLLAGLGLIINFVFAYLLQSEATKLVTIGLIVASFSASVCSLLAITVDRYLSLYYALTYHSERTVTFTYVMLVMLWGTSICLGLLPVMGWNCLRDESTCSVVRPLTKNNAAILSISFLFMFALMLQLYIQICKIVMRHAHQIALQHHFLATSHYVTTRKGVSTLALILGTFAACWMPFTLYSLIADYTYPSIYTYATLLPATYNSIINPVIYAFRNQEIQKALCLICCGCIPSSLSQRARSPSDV
# Target: T1, mouse GPR12
# Assay: cell-based or functional assay
binder,measurement,value
PDTGLYYDEYLKQVIDVLETDKHFREKLQK [Nesfatin-1M30],"intracellular cAMP level (Fold against the (-) group), CHO-K1-GPR12 cells, 10^-9 M peptide with 10^-5 M Forskolin",~5 fold
